Reference: doi:10.1101/2025.09.11.674065

Biological target: His6-AstR (Acinetobacter baumannii ATCC 17978VU)
Test: SEC; size exclusion chromatography with standard curves; purified His6-AstR; Size Exclusion Buffer 50 mM Tris, 300 mM NaCl, pH 8

In the case of His6-AstR (natural protein), the stoichiometry N is reported as 2.
